Laboratory results reported in patent US20110239327A1, “Nematicidal Effects of Cysteine Proteinases and Methods of Use Thereof to Treat Nematode Infestation” (priority 2007, published 2011).

Tests used:
M. incognita J2 = test: In planta bioassay, two soil applications: nematode infection of tomato roots; type: in vivo, M. incognita on tomato plants; conditions: two soil applications of enzyme (250 μM papain, 2.2 μM bromelain, 3.3 mM actinidin as printed), soil 16% organic matter, 11 days
Method: Oxamyl is supplied as 10% liquid Vydate. 125 μl of a solution 1000 fold dilution of 10% formulation (kindly supplied by DK from NIU) was applied to 5 g of the soil mixture with 16% organic matter, to give a partial nematicidal effect. Soil mixtures were wetted with PBS pH 7.2, 16 hrs prior nematode application of 1000 or 2000 M. incognita J2. Infected soil mixtures were treated with water (control) or 250 μM of active papain in 16 mM of L-cysteine or a combination of Vydate and 250 μM of active papain in 16 mM of L-cysteine. After 48 hs tomato seedlings one month old were added to the treated soils. After 11 days the roots were washed free of soil and chopped to approximately 2 mm pieces. The root pieces of each tomato plant was placed in muslin bags and stained with acid-fuchsin. The stained roots were examined under microscope and all the nematodes present in the roots were counted. […] After 48 hours tomato seedlings one month old were added to the treated soils and after 11 days post infection nematode development inside root tissues was assessed as described above.
The avermectins are macrocyclic lactones produced by the actinomycete Streptomyces avermitilis. […] After 48 hs tomato seedlings one month old were added to the treated soils and after 11 days post infection nematode development inside root tissues was assessed as described above. […]

[1] = tested on: adult females of M. incognita; test: Light microscopy of Meloidogyne adult female worms incubated with papain; type: cell-based; set-up: digestion of the cuticle of adult females: dose or concentration left out as unconfirmed
Method: To assess whether these enzymes also affected the cuticles of other stages of the nematodes, five adult females of M. […], prepared in 16 mM L-cysteine dissolved in phosphate buffered saline (PBS), pH 7.4, or PBS, pH 7.4 with and without 16 mM L-cysteine. These nematodes were incubated in the dark at ambient temperature for 4 h and were then examined using a light microscope at ×10 and ×20 magnification to observe any differences to the nematode body wall.

Steinernema feltiae = test: In vitro effect on the beneficial nematode Steinernema feltiae; type: cell-based
Method: Eggs of M. incognita race 1 from North Carolina State University, USA were collected from tomato-infected roots grown in a glasshouse at 23° C. in a 16:8 h light-dark regime. Eggs were extracted using 1% hypochlorite (NaClO) solution (Hussey and Barker, 1973) or by picking egg masses from tomato-infected roots. Juveniles (J2) were hatched from the eggs and egg masses in water. Heterodera glycines eggs were obtained from soil samples stored in Rothamsted-Research. Second stage juveniles (J2) were hatched from the eggs in water after 10 days. Pratylenchus penetrans were a gift from Dr. Deeren Anne-Marie from the Institute for Agricultural and Fisheries Research, Merelbeke, Belgium. The beneficial nematodes Steinernema feltiae and Heterorhabditis megidis were a gift from Dr. Paul Williams from Becker Underwood.
Control wells were set up which contained J2s and distilled water with 16 mM L-cysteine. Each enzyme concentration and the controls were set up in duplicate (i.e. n=2). The actual number of active J2s per well was counted with the aid of an Olympus inverted microscope, prior to the addition of the enzymes, and then the J2s were incubated in the dark at room temperature for 2 hs, 16 hs, 24 hs or 40 hr. The number of live and dead J2s per well was counted after each enzyme incubation. The same procedure was followed when setting up further experiments to compare the effects of these enzymes with Heterodera glycines J2, Pratylenchus penetrans, Steinernema feltiae and Heterorhabditis megidis.
The beneficial nematodes Hetorhabditis megidis and Steinernema feltiae were incubated with dilutions of actinidin, bromelain and pappain from papaya latex (see concentrations used in table 3). These nematodes reacted differentially to these cysteine proteinases (Tables 4 and 5). […] S. feltiae were dead at all concentrations of actinidin tested. […] After 16 hs of observation the enzyme solutions were diluted with water (to half of the initial concentrations) however, no change in nematode movement was observed after 24 hs.

B1: papain (protein, UniProt P00784 134-345, looked up)
Papain: IPEYVDWRQKGAVTPVKNQGSCGSCWAFSAVVTIEGIIKIRTGNLNEYSEQELLDCDRRSYGCNGGYPWSALQLVAQYGIHYRNTYPYEGVQRYCRSREKGPYAAKTDGVRQVQPYNEGALLYSIANQPVSVVLEAAGKDFQLYRGGIFVGPCGNKVDHAVAAVGYGPNYILIKNSWGTGWGENGYIRIKRGTGNSYGVCGLYTSSFYPVKN
notes: cysteine proteinase from Carica papaya, Merops C01.001, Sigma P3125
**Q.** Which “reduction of nematode infection of plants” value (M. incognita J2) does the source give for B1 here?
**A.** The value was 89%.

**Q.** What about the “digestion of the cuticle of adult females (light micrographs)” value ([1]; 25 μM active papain, 4 h) of the same molecule?
**A.** Its value is “Digestion of the cuticle was evident”.

**Q.** And the “digestion of the cuticle of adult females” value ([1]; active papain)?
**A.** Its value is “digestion of the cuticle was evident”.

**Q.** And the “only papain concentration that affected S. feltiae movement” value (Steinernema feltiae)?
**A.** The value was 250 µM.

**Q.** What about the “nematode motility or behaviour” value (Steinernema feltiae; enzyme concentration A (Table 3): actinidin 3.3 mM, bromelain 2.2 mM, papain 250 uM) of the same molecule?
**A.** Its value is 70% paralysed.

**Q.** What about the “nematode motility or behaviour” value (Steinernema feltiae; enzyme concentration B: actinidin 1.7 mM, bromelain 1.1 mM, papain 125 uM) of the same molecule?
**A.** Its value is “All moving slowly”.
